Consider 3 molecules from patent US20230227568A1 (Pieris, published 2023).

Assay [1] addresses T1, human 4-1BB on cells (human, UniProt Q07011 24-255).
T1 construct: whole, on cells; Stably transfected CHO cells (flow cytometry) and bought Jurkat reporter cells (bioassay); also called Flp-In-CHO::hu4-1BB; human 4-1BB-expressing CHO cells
The assay is described as follows: flow cytometry, Flp-In-CHO::hu4-1BB cells. Here is the method:
(§1) 5×10⁴ cells per well were incubated for 1 h in ice-cold PBS containing 5% fetal calf serum (PBS-FCS). A dilution series of the tested multimeric proteins (SEQ ID NOs: 38-44 and 46-55), the 4-1BB-targeting lipocalin mutein as included in the multimeric proteins (SEQ ID NO: 64) or the GPC3-targeting lipocalin SEQ ID NO: 90 were added to the cells and incubated for 1 h on ice. Cells were washed twice with PBS and then incubated with a rabbit anti-NGAL or a goat anti-human IgG labeled with fluorescent dye Alexa 488 for 30 min on ice. Human IgG4 isotype (SEQ ID NOs: 29 and 30) and lipocalin mutein SEQ ID NO: 8 were tested as a negative control. Cells were subsequently washed and analyzed using iQue Flow cytometer (Intellicyte Screener). Mean geometric fluorescent signals were plotted and fitted with Graphpad software using nonlinear regression (shared bottom, four parameters, variable slope).
(§2) Target-specific binding of hexavalent trimeric proteins to human 4-1BB-, OX40- or PD-L1-expressing cells was assessed by flow cytometry as described in Example 5, using CHO cells stably transfected with human 4-1BB, human OX40 or human PD-L1 (Flp-In system; Life Technologies).

Assay [2] concerns the target T2, human PD-L1 on CHO cells (human, UniProt Q9NZQ7 19-290).
T2 construct: whole, on cells; Stably transfected CHO cells; also called Flp-In-CHO::huPD-L1; human PD-L1-expressing CHO cells
Kind of assay: flow cytometry, Flp-In-CHO::huPD-L1 cells. (Flow cytometry measures light scatter and fluorescence of single cells or particles in a stream.)

In another assay the target is T3, hu4-1BB-Fc (R&D Systems) (human, UniProt Q07011 24-186).
T3 construct: Bought; also called human 4-1BB; not shown: human IgG Fc of the bought fusion
The assay is described as follows: SPR, hu4-1BB-Fc captured. (In general: In SPR one partner is held on a chip, and binding of the other changes the refractive index at the surface.)

For assay [3], the target named is T4, recombinant hu4-1BB-His (human 4-1BB with a C-terminal polyhistidine tag, R&D Systems) (human, UniProt Q07011 24-186).
T4 construct: Bought; not shown: C-terminal polyhistidine tag
Kind of assay: ELISA, hu4-1BB-His coated on the plate, bound agent detected with anti-NGAL-HRP. Here is the method:
C-terminal His-tagged 4-1BB or GPC3 was coated on a microtiter plate, and the tested agents were titrated starting with the highest concentration of 100 nM. Bound agents under study were detected via anti-NGAL-HRP. The data was fit with a 1:1 binding model with the EC₅₀ value and the maximum signal as free parameters, and a slope that was fixed to one.
Recombinant hu4-1BB-His (human 4-1BB with a C-terminal polyhistidine tag, R&D Systems) at the concentration of 1 μg/mL in PBS was coated overnight on microtiter plates at 4° C. After washing with PBS-0.05% T (PBS supplemented with 0.05% (v/v) Tween 20), the plates were blocked with 2% BSA (w/v) in PBS-0.1% T (PBS supplemented with 0.1% (v/v) Tween 20) for 1 h at room temperature. After washing with 100 μL PBS-0.05% T five times, exemplary multimeric proteins (SEQ ID NOs: 38-44 and 46-53) or 4-1BB-specific lipocalin mutein as included in the multimeric protein (SEQ ID NO: 64) at different concentrations, ranging from 100 to 0.002 nM, were added to the wells and incubated for 1 h at room temperature, followed by another wash step. Bound molecules under study were detected by incubation with 1:1000 diluted anti-NGAL-HRP in PBS-0.1% T-2% BSA. After an additional wash step, fluorogenic HRP substrate (QuantaBlu, Thermo) was added to each well and the fluorescence intensity was detected using a fluorescence microplate reader.
(In general: In an ELISA, binding on a coated surface is turned into a signal by an enzyme label.)

The target of assay [4] is T5, human GPC3 on HepG2 cells (human, UniProt P51654 25-554).
T5 construct: whole, on cells; Endogenous GPC3 of the tumor cell line; also called GPC3-positive tumor cell line HepG2; human GPC3-expressing HepG2 cells
T5 sequence (P51654 25-554 limits assumed): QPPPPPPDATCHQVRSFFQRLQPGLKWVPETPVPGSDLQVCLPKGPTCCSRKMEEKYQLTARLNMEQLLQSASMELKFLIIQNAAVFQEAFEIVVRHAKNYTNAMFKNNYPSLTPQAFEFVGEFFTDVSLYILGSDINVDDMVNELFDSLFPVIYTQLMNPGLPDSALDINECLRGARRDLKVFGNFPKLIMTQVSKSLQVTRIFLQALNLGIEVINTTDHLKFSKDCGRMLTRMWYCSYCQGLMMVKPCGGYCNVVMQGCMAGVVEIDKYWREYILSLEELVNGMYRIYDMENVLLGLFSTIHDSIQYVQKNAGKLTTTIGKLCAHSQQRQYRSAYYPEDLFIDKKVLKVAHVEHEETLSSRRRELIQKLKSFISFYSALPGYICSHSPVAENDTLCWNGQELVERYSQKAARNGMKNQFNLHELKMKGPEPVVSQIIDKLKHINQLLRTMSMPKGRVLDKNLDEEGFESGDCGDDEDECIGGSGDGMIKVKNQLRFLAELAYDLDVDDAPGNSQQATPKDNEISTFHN
The assay is described as follows: flow cytometry on HepG2 cells (human GPC3), anti-NGAL detection, GeoMean BL1-H [Cont'd) C]. As for the experimental part:
GPC3-positive tumor cell line HepG2 was cultured in Dulbecco's Modified Eagle's Medium ([…], Pan Biotech) supplemented with 10% Fetal Calf Serum (Sigma-Aldrich) and in cell culture flasks according to manufacturer's instruction (37° C., 5% CO₂ atmosphere).
as §1

Assay [5] addresses T1, human 4-1BB on cells. Kind of assay: flow cytometry on Flp-In-CHO::huCD137 (human 4-1BB) cells, anti-NGAL detection, GeoMean BL1-H. Here is the method: (§3) CHO cells were stably transfected with human 4-1BB, cynomolgus 4-1BB, or a mock control using the Flp-In system (Life Technologies) according to the manufacturer's instructions. Transfected CHO cells were maintained in Ham's F12 medium (Life Technologies) supplemented with 10% Fetal Calf Serum (Biochrom) and 500 μg/ml Hygromycin B (Roth). Cells were cultured in cell culture flasks according to manufacturer's instruction (37° C., 5% CO₂ atmosphere).
as §1

The target of assay [6] is T2, human PD-L1 on CHO cells. The assay is described as follows: flow cytometry on CHO cells stably transfected with human PD-L1, anti-NGAL detection, GeoMean BL1-H. As for the experimental part:
as §1, §2

The target in assay [7] is T6, cynomolgus 4-1BB on CHO cells (cynomolgus, UniProt A9YYE7 24-254).
T6 construct: also called Flp-In-CHO::cyno4-1BB; cynomolgus 4-1BB-expressing CHO cells
T6 sequence (A9YYE7 entry or part of it limits assumed): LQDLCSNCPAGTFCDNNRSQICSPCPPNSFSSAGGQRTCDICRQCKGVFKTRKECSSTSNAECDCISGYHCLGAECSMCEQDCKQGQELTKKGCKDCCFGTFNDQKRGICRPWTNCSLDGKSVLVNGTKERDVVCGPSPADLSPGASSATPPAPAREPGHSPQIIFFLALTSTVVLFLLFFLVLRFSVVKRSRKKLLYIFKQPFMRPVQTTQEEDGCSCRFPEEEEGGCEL
The assay is described as follows: flow cytometry on Flp-In-CHO::cyCD137 (cynomolgus 4-1BB) cells, anti-NGAL detection, GeoMean BL1-H [Cont'd) B]. Here is the method:
as §3, §1

The EC50 is the concentration giving half of the maximal effect.

T1 sequence (Q07011 24-255): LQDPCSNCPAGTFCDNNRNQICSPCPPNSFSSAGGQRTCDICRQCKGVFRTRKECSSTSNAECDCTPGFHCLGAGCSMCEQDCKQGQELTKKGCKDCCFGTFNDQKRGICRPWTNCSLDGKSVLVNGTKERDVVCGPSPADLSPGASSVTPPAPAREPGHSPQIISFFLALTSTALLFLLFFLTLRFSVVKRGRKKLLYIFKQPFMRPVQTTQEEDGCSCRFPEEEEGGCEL
T2 sequence (Q9NZQ7 19-290): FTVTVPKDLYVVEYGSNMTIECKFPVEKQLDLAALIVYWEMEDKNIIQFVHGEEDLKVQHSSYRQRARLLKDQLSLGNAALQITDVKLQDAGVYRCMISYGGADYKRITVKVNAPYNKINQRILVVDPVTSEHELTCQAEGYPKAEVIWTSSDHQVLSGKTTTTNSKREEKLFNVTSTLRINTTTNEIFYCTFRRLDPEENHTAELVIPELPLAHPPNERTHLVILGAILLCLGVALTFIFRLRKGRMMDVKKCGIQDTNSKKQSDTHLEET

B1: bispecific hexavalent trimeric protein SEQ ID NO: 167 (designed binder)
chain: QVQLQESGPGLVKPSETLSITCTVSGFSLSNYDISWIRQPPGKGLEWLGVIWTGGATNYNPALKSRLTISRDNSKNQVSLKMSSVTAADTAVYYCVRDSNYRYDEPFTYWGQGTLVTVSSGGGGSGGGGSGGGGSGGGGSEIVLTQSPDTLSVTPKEKVTLTCRASQSIGTNIHWFQQKPGQSPKLLIKYASESISGVPSRFSGSGSGTDFTLTINSVEAEDAATYYCQQSNSWPYTFGQGTKLEIKGGGGSGGGGSGGGGSGVRLWATRQAMLGQVHEVPEGWLIFVAEQEELYVRVQNGFRKVQLEARTPLGGGGSGGGGSGGGGSQDSTSDLIPAPPLSKVPLQQNFQDNQFHGKWYVVGQAGNIRLREDKDPIKMMATIYELKEDKSYDVTMVKFDDKKCMYDIWTFVPGSQPGEFTLGKIKSFPGHTSSLVRVVSTNYNQHAMVFFKFVFQNREEFYITLYGRTKELTSELKENFIRFSKSLGLPENHIVFPVPIDQCIDGGGSGGAPEQKLISEEDLGSHHHHHHHHHH
As to B1, the EC50 with human 4-1BB on cells [1] came to 4.71 nM; in the assay with human PD-L1 on CHO cells [2], 1.23 nM.

B2: multimeric protein SEQ ID NO: 45 (designed binder)
chain: GVRLWATRQAMLGQVHEVPEGWLIFVAEQEELYVRVQNGFRKVQLEARTPLGGGGSGGGGSGGGGSGGGGSGGGGSQDSTSDLIPAPPLSKVPLQQNFQDNQFHGKWYVVGQAGNIRLREDKDPIKMMATIYELKEDKSYDVTMVKFDDKKCMYDIWTFVPGSQPGEFTLGKIKSFPGHTSSLVRVVSTNYNQHAMVFFKFVFQNREEFYITLYGRTKELTSELKENFIRFSKSLGLPENHIVFPVPIDQCIDGGGSGGAPEQKLISEEDLGSHHHHHHHHHH
Consider B2, for which, in the assay with hu4-1BB-Fc (R&D Systems), the binding result is reported as “binds”.

B3: SEQ ID NO: 8 (designed binder)
lipocalin mutein: QDSTSDLIPAPPLSKVPLQQNFQDNQFHGKWYVVGLAGNAILREDKDPQKMYATIYELKEDKSYNVTSVLFRKKKCDYWIRTFVPGSQPGEFTLGNIKSYPGLTSYLVRVVSTNYNQHAMVFFKKVSQNREYFKITLYGRTKELTSELKENFIRFSKSLGLPENHIVFPVPIDQCIDG
As for B3, the binding result in assay [3] is “no binding (tested: 100 nM)”; in assay [4], “no binding (tested: about 200 nM)”; with human 4-1BB on cells [5], “no binding (tested: about 200 nM)”; in the assay with human PD-L1 on CHO cells [6] it was “no binding (tested: about 7 nM)”; in assay [7], “no binding (tested: about 200 nM)”.
